Experimental findings from paper PMC7643134 are described below.

This experiment concerns the target Hydroxynitrile lyase from Parafontaria laminata millipedes, purified from the millipedes (PlamHNL-N) (Parafontaria laminata). The experiment can be described thus: SEC.

“Hydroxynitrile lyase from Parafontaria laminata millipedes, purified from the millipedes (PlamHNL-N) (enzyme)” came in with a stoichiometry N of 2.
